Article PMC4842972, “Identification of residues crucial for the interaction between human neuroglobin and the α-subunit of heterotrimeric Gi protein” (Scientific Reports, 2016)

Tests used:
Assay in all cases: pull-down; GST-ferric Ngb (or GST alone) immobilised on glutathione-Sepharose 4B beads, incubated with truncated Gαi1; 10 mM HEPES, 150 mM NaCl, 10 mM MgCl2, 10 uM GDP, 0.1% Tween20, pH 7.4; 1 h at 4 °C; Western blot with anti-Gαi1 monoclonal antibody
Conditions in all cases: both partners purified
[1] = target: T1, human WT truncated Gαi1 protein (residues 26-354), GDP-bound form (human, UniProt P63096 26-354)
T1 construct: human Gαi1 (α-subunit of heterotrimeric Gi protein), residues 26-354; lacks the N-terminal disordered region (25 amino acids); Cloned in pET151/D-TOPO with a TEV site after the His6-tag; also called WT Gαi1; not shown: His6, N-terminal, cleaved
T1 sequence (P63096 26-354): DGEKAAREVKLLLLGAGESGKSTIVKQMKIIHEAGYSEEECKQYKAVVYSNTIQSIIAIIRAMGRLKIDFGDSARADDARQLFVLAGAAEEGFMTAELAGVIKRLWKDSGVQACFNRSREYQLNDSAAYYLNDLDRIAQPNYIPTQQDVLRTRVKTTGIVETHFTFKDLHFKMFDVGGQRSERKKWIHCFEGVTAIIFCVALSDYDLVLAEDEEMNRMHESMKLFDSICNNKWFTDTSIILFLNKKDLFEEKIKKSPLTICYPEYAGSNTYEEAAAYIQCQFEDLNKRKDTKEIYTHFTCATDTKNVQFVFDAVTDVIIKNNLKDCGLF

[2] = target: T2, human truncated Gαi1 K180L single mutant, GDP-bound form (human, UniProt P63096 26-354, K180L)
T2 construct: human Gαi1, residues 26-354, with K180L (Leu is the corresponding residue of human Gαs); site-directed mutant of the truncated Gαi1 construct; also called K180L Gαi1; not shown: His6, N-terminal, cleaved
T2 sequence (P63096 26-354 K180L): as the sequence (P63096 26-354) above, with K155L counted along it

[3] = target: T3, human truncated Gαi1 E238N, E239Q double mutant, GDP-bound form (human, UniProt P63096 26-354, E238N | E239Q)
T3 construct: human Gαi1, residues 26-354, with E238N and E239Q (the corresponding residues of human Gαs); site-directed mutant of the truncated Gαi1 construct; also called E238N, E239Q Gαi1 double mutant; not shown: His6, N-terminal, cleaved
T3 sequence (P63096 26-354 E238N/E239Q): as the sequence (P63096 26-354) above, with E213N, E214Q counted along it

[4] = target: T4, human truncated Gαi1 K67A single mutant, GDP-bound form (human, UniProt P63096 26-354, K67A)
T4 construct: human Gαi1, residues 26-354, with K67A; site-directed mutant of the truncated Gαi1 construct; also called K67A Gαi1; not shown: His6, N-terminal, cleaved
T4 sequence (P63096 26-354 K67A): as the sequence (P63096 26-354) above, with K42A counted along it

[5] = target: T5, human truncated Gαi1 R86A single mutant, GDP-bound form (human, UniProt P63096 26-354, R86A)
T5 construct: human Gαi1, residues 26-354, with R86A; site-directed mutant of the truncated Gαi1 construct; also called R86A Gαi1; not shown: His6, N-terminal, cleaved
T5 sequence (P63096 26-354 R86A): as the sequence (P63096 26-354) above, with R61A counted along it

[6] = target: T6, human truncated Gαi1 E236Q single mutant, GDP-bound form (human, UniProt P63096 26-354, E236Q)
T6 construct: human Gαi1, residues 26-354, with E236Q; site-directed mutant of the truncated Gαi1 construct; also called E236Q Gαi1; not shown: His6, N-terminal, cleaved
T6 sequence (P63096 26-354 E236Q): as the sequence (P63096 26-354) above, with E211Q counted along it

| Binder | binding result [1] | binding result [2] | binding result [3] | binding result [4] | binding result [5] | binding result [6] |
| --- | --- | --- | --- | --- | --- | --- |
| GST-human ferric E151Q Ngb mutant (natural protein, human neuroglobin (Ngb) with E151Q (the residue of bush baby Ngb at this position); in pGEX-4T-1; Ferric form; made by site-directed mutagenesis of GST-Ngb; also called GST-human Ngb mutant; source: E. coli BL21 (DE3), purified (glutathione-Sepharose 4B)) MERPEPELIRQSWRAVSRSPLEHGTVLFARLFALEPDLLPLFQYNCRQFSSPEDCLSSPEFLDHIRKVMLVIDAAVTNVEDLSSLEEYLASLGRKHRAVGVKLSSFSTVGESLLYMLEKCLGPAFTPATRAAWSQLYGAVVQAMSRGWDGQ | binds | – | – | – | – | – |
| GST-human ferric WT Ngb (neuroglobin) (natural protein, human neuroglobin (Ngb); human Ngb cDNA cloned into pGEX-4T-1; also called GST-human WT Ngb; GST-human Ngb; source: E. coli BL21 (DE3), purified (glutathione-Sepharose 4B)) MERPEPELIRQSWRAVSRSPLEHGTVLFARLFALEPDLLPLFQYNCRQFSSPEDCLSSPEFLDHIRKVMLVIDAAVTNVEDLSSLEEYLASLGRKHRAVGVKLSSFSTVGESLLYMLEKCLGPAFTPATRAAWSQLYGAVVQAMSRGWDGE | binds | binds | binds | binds | binds | binds |
| GST-human ferric R97C Ngb mutant (natural protein, human neuroglobin (Ngb) with R97C (the residue of megabat Ngb at this position); in pGEX-4T-1; Ferric form; made by site-directed mutagenesis of GST-Ngb; also called GST-human Ngb mutant; source: E. coli BL21 (DE3), purified (glutathione-Sepharose 4B)) MERPEPELIRQSWRAVSRSPLEHGTVLFARLFALEPDLLPLFQYNCRQFSSPEDCLSSPEFLDHIRKVMLVIDAAVTNVEDLSSLEEYLASLGRKHCAVGVKLSSFSTVGESLLYMLEKCLGPAFTPATRAAWSQLYGAVVQAMSRGWDGE | binds | – | – | – | – | – |
